Reference: paper PMC11452509

Experiments:
Assay in all cases: SPR
[1] = target: trastuzumab produced in CHO-K1 cells (human (detected with anti human IgG (H + L)))
[2] = target: trastuzumab produced in CHO-gmt9 cells (human (detected with anti human IgG (H + L)))
[3] = target: trastuzumab produced in CHO-gmt13 cells (human (detected with anti human IgG (H + L)))
[4] = target: trastuzumab produced in CHO-gmt21 cells (human (detected with anti human IgG (H + L)))
[5] = target: trastuzumab produced in CHO-gmt8 cells (human (detected with anti human IgG (H + L)))

## extracellular domain of human FcγRIIIa with a His-tag (from UniProt P08637 17-208) (receptor)
[1]
  Kd: 0.56 µM
[2]
  Kd: 0.08 µM
[3]
  Kd: 0.78 µM
[4]
  Kd: 0.799 µM
[5]
  Kd: 0.2 µM
